± gives the uncertainty stated by the source.
Assay: self-splicing fitness, log relative to wild type (ln ratio); higher = more splicing; Tetrahymena group I intron in knt gene, E. coli kanamycin selection, DiMSum; sequences stand for … in CUCUCU…GGAGGGAAAAGUUAUCAGGCAUGCACCUGGUAGCUAGUCUUUAAACCAAUAGAUUGCAUCGGUUUAAAAGGCAAGACCGUCAAAUUGCGGGAAAGGGGUCAACAGCCGUUCAGUACCAAGUCUCAGGGGAAACUUUGAGAUGGCCUUGCAAAGGGUAUGGUAAUAAGCUGACGGACAUGGUCCUAACCACGCAGCCAAGUCCUAAGUCAACAGAUCUUCUGUUGAUAUGGAUGCAGUUCACAGACUAAAUGUCGGUCGGGGAAGAUGUAUUCUUCUCAUAAGAUAUAGUCGGACCUCUCCUUAAUGGGAGCUAGCGGAUGAAGUGAUGCAACACUGGAGCCGCUGGGAACUAAUUUGUAUGCGAAAGUAUAUUGAUUAGUUUUGGAGUACUCGUGGUCG
Outline: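 Six replicate transformations of E. coli BL21(DE3) with a pET-22b(+) library were grown overnight at 37°C or 30°C. The library randomised all eight P1ex-region intron nucleotides, the intron lying in the knt kanamycin-resistance gene, and plates were LB agar with or without 25 μg/mL kanamycin plus 100 μg/mL carbenicillin, 50 μM IPTG and 0.2% rhamnose. Pooled colonies were amplicon-sequenced on an Illumina HiSeq 2500, and fitness is the DiMSum error-weighted combination of wild-type-normalised replicate fold changes, kanamycin versus none.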

Sequence | self-splicing fitness (ln) (30 °C) | self-splicing fitness (ln) (37 °C)
GAAUAGCAAUAUUACGUCGC | -0.78 ± 0.12 | -0.38 ± 0.17
UACUAGCAAUAUUACGUCCG | -0.327 ± 0.12 | 0.11 ± 0.14
AGAUAGCAAUAUUACGGCUU | -0.346 ± 0.11 | -0.141 ± 0.097
GAGUAGCAAUAUUACGUCUG | -0.699 ± 0.12 | -0.363 ± 0.15
AGUCAGCAAUAUUACGCACU | -2.19 ± 0.12 | -1.42 ± 0.13
ACUGAGCAAUAUUACGAAAC | -4.21 ± 0.42 | -1.42 ± 0.38
GCAGAGCAAUAUUACGCUCU | -3.93 ± 0.44 | 
AUCCAGCAAUAUUACGGCAA | -0.324 ± 0.1 | -0.263 ± 0.12
CGUUAGCAAUAUUACGGCUU | -0.864 ± 0.16 | -2.39 ± 0.31
CUUAAGCAAUAUUACGACAG | 0.325 ± 0.096 | -0.266 ± 0.12
CCCUAGCAAUAUUACGCGCA | -2.49 ± 0.45 | -1.72 ± 0.32
UUGCAGCAAUAUUACGGCAU | -2.44 ± 0.19 | -1.19 ± 0.1
GAAAAGCAAUAUUACGUUCG | -1.01 ± 0.064 | -0.233 ± 0.08
UACAAGCAAUAUUACGCAUA | -2.07 ± 0.11 | -0.871 ± 0.11
CAGAAGCAAUAUUACGCCGA | -3.49 ± 0.41 | -2.75 ± 0.33
CGGGAGCAAUAUUACGCGAU |  | -1.6 ± 0.41
UGACAGCAAUAUUACGGCAU | -1.88 ± 0.073 | -0.478 ± 0.087
UUAUAGCAAUAUUACGUCCU | -3.3 ± 0.34 | -1.78 ± 0.27
GAGCAGCAAUAUUACGAUGC | -1.47 ± 0.092 | -0.514 ± 0.11
CUUCAGCAAUAUUACGAUCA |  | -1.38 ± 0.32
UCUAAGCAAUAUUACGGAGG | -2.49 ± 0.26 | -3.05 ± 0.43
UACCAGCAAUAUUACGCCGU | -1.4 ± 0.14 | -1.6 ± 0.23
UUUGAGCAAUAUUACGGGUA | -2.8 ± 0.46 | 
GCGCAGCAAUAUUACGGAAC | -1.37 ± 0.081 | -0.714 ± 0.098
AGAAAGCAAUAUUACGAGCU | -0.0239 ± 0.055 | 0.0125 ± 0.072

Sequence | self-splicing fitness (ln) (30 °C) | self-splicing fitness (ln) (37 °C)
AUCAAGCAAUAUUACGACUC | -0.467 ± 0.1 | -0.0986 ± 0.14
AGAAAGCAAUAUUACGGGGG | -3.3 ± 0.15 | -2.71 ± 0.17
AAACAGCAAUAUUACGUCGC | -3.37 ± 0.21 | -2.92 ± 0.23
AAGAAGCAAUAUUACGACCC | -1.01 ± 0.16 | -0.395 ± 0.17
CUACAGCAAUAUUACGGUAU | -2.43 ± 0.08 | -1.31 ± 0.096
AUCAAGCAAUAUUACGCCAC | -1.42 ± 0.29 | -1.79 ± 0.4
CAAUAGCAAUAUUACGCCGU | -3.47 ± 0.15 | -1.4 ± 0.14
UUCCAGCAAUAUUACGGCCU | -4.05 ± 0.42 | -1.58 ± 0.17
GACCAGCAAUAUUACGCGAA | -0.483 ± 0.059 | -0.138 ± 0.083
AAUCAGCAAUAUUACGUUAG | -3.15 ± 0.2 | -2.86 ± 0.23
GAACAGCAAUAUUACGAGGA | -2.14 ± 0.11 | -1.53 ± 0.14
CGACAGCAAUAUUACGGUCA | -0.168 ± 0.083 | 0.276 ± 0.1
ACGGAGCAAUAUUACGUUGA | -2.94 ± 0.2 | -2.29 ± 0.21
AGCAAGCAAUAUUACGAGGA | -2.86 ± 0.17 | -2.29 ± 0.2
GGCUAGCAAUAUUACGCUAC | -3.04 ± 0.48 | -2.3 ± 0.34
GGUAAGCAAUAUUACGGGUG | -3.24 ± 0.12 | -1.85 ± 0.088
AGUCAGCAAUAUUACGGGCA | -0.79 ± 0.095 | -0.281 ± 0.11
AGUGAGCAAUAUUACGUCCU | 0.0407 ± 0.17 | 0.233 ± 0.18
CAAUAGCAAUAUUACGAUUC | -3.4 ± 0.14 | -1.24 ± 0.14
ACCCAGCAAUAUUACGAGGU | -3.8 ± 0.12 | -2.93 ± 0.14
ACAAAGCAAUAUUACGACCA | -0.633 ± 0.12 | -0.407 ± 0.13
GGUUAGCAAUAUUACGCAUC | -0.527 ± 0.33 | -0.989 ± 0.38
GUACAGCAAUAUUACGGAAC | -3.3 ± 0.19 | -0.753 ± 0.17
GGGAAGCAAUAUUACGAGUU | -2.86 ± 0.15 | -1.02 ± 0.099
CAAUAGCAAUAUUACGAUCG | 0.123 ± 0.069 | -0.0654 ± 0.083

Sequence | self-splicing fitness (ln) (30 °C) | self-splicing fitness (ln) (37 °C)
AACCAGCAAUAUUACGGUAG | -1.99 ± 0.058 | -1.02 ± 0.066
GGGUAGCAAUAUUACGCAAC |  | -2.43 ± 0.44
UGACAGCAAUAUUACGGGCA | -0.0919 ± 0.079 | 0.689 ± 0.093
CGCUAGCAAUAUUACGUUCU | -2.16 ± 0.11 | -1.67 ± 0.12
AAGAAGCAAUAUUACGAAUG | -2.19 ± 0.13 | -1.66 ± 0.14
UGCGAGCAAUAUUACGCGAG | -3.16 ± 0.23 | -1.79 ± 0.25
AAGAAGCAAUAUUACGCAAU | -2.08 ± 0.18 | -1.52 ± 0.2
AACUAGCAAUAUUACGGGGC | -3.61 ± 0.23 | -3.1 ± 0.35
CUAUAGCAAUAUUACGGCGG | -0.513 ± 0.12 | -0.641 ± 0.14
AGCGAGCAAUAUUACGGACC | -0.957 ± 0.13 | -1.08 ± 0.18
AAACAGCAAUAUUACGUGCU | -3.52 ± 0.2 | -1.91 ± 0.14
GGGCAGCAAUAUUACGGUGU | -2.02 ± 0.1 | -1.21 ± 0.099
CAUAAGCAAUAUUACGCGAU | -3.46 ± 0.26 | -3.08 ± 0.28
AUGAAGCAAUAUUACGUCAG | -0.198 ± 0.057 | 0.134 ± 0.073
UUCCAGCAAUAUUACGUGAU | -1.08 ± 0.044 | -0.294 ± 0.063
CCUCAGCAAUAUUACGUGGG | -4.89 ± 0.25 | -3.15 ± 0.19
AACUAGCAAUAUUACGCGUA | -1.19 ± 0.09 | -0.289 ± 0.083
AAUUAGCAAUAUUACGCGUG | -0.374 ± 0.066 | -0.101 ± 0.083
GCAUAGCAAUAUUACGGAAA | -1.6 ± 0.31 | -1.88 ± 0.25
UGGAAGCAAUAUUACGUUCU | -3.42 ± 0.25 | -1.31 ± 0.17
CGGAAGCAAUAUUACGUGAU | -3.44 ± 0.12 | -1.96 ± 0.12
GCUUAGCAAUAUUACGCAUU | -0.542 ± 0.095 | -0.78 ± 0.12
GUCCAGCAAUAUUACGGCGU | -0.257 ± 0.078 | 0.0026 ± 0.099
AGGGAGCAAUAUUACGGUGG | -3.72 ± 0.27 | -3.79 ± 0.36
AUGGAGCAAUAUUACGAGAA |  | -1.43 ± 0.34

Sequence | self-splicing fitness (ln) (30 °C) | self-splicing fitness (ln) (37 °C)
UGCAAGCAAUAUUACGCACU | -2.92 ± 0.13 | -1.28 ± 0.1
GAAAAGCAAUAUUACGCCGU | -1.75 ± 0.097 | -0.396 ± 0.1
AUAUAGCAAUAUUACGUGUA | -2.27 ± 0.36 | -2.01 ± 0.25
GUCGAGCAAUAUUACGCCCU |  | -0.627 ± 0.41
UGGUAGCAAUAUUACGCAGU | -3.14 ± 0.4 | -2.76 ± 0.4
UGCAAGCAAUAUUACGCUUA | -1.2 ± 0.092 | -0.639 ± 0.092
GUCAAGCAAUAUUACGUCUU | -2.96 ± 0.071 | -1.58 ± 0.066
AUCCAGCAAUAUUACGCUUC | -3.58 ± 0.16 | -2.15 ± 0.15
CCGUAGCAAUAUUACGUGUU | -3.35 ± 0.2 | -2.47 ± 0.18
AGUUAGCAAUAUUACGGUGA | -1.43 ± 0.13 | -1.13 ± 0.21
CCCCAGCAAUAUUACGGACG | -1.67 ± 0.096 | -0.944 ± 0.13
AUCGAGCAAUAUUACGCUUA | -2.01 ± 0.18 | -0.429 ± 0.13
GGCAAGCAAUAUUACGAGGC | -0.0179 ± 0.3 | 
CACGAGCAAUAUUACGUUAG | -2.94 ± 0.16 | -2.64 ± 0.18
AGUCAGCAAUAUUACGAUAA | -0.337 ± 0.087 | -0.697 ± 0.1
ACAUAGCAAUAUUACGACUG | -0.814 ± 0.065 | -0.36 ± 0.09
GAUGAGCAAUAUUACGGUUA | -2.77 ± 0.28 | -2.47 ± 0.25
GUUGAGCAAUAUUACGUGUC | -2.34 ± 0.14 | -2.2 ± 0.2
GUUUAGCAAUAUUACGGACU |  | 1.32 ± 0.45
UCAAAGCAAUAUUACGACAU | -3.633 ± 0.023 | -2.37 ± 0.036
CCUGAGCAAUAUUACGCUGU | -4.99 ± 0.46 | -2.85 ± 0.23
GGGCAGCAAUAUUACGACAC | -0.731 ± 0.26 | 0.302 ± 0.27
AUAUAGCAAUAUUACGUUAC | -3.05 ± 0.29 | -2.33 ± 0.24
